Test [1] has as its target T1, mature form of alpha3 lacking the LG4/5 domain (human, UniProt Q16787-1 28-1348, limits assumed).
T1 construct: domain: mature form of alpha3 lacking the LG4/5 domain; Alpha3 subunit of LN5 purified from keratinocyte culture medium, reducing SDS-PAGE; also called alpha3 chain of mature LN5
T1 sequence (looked up): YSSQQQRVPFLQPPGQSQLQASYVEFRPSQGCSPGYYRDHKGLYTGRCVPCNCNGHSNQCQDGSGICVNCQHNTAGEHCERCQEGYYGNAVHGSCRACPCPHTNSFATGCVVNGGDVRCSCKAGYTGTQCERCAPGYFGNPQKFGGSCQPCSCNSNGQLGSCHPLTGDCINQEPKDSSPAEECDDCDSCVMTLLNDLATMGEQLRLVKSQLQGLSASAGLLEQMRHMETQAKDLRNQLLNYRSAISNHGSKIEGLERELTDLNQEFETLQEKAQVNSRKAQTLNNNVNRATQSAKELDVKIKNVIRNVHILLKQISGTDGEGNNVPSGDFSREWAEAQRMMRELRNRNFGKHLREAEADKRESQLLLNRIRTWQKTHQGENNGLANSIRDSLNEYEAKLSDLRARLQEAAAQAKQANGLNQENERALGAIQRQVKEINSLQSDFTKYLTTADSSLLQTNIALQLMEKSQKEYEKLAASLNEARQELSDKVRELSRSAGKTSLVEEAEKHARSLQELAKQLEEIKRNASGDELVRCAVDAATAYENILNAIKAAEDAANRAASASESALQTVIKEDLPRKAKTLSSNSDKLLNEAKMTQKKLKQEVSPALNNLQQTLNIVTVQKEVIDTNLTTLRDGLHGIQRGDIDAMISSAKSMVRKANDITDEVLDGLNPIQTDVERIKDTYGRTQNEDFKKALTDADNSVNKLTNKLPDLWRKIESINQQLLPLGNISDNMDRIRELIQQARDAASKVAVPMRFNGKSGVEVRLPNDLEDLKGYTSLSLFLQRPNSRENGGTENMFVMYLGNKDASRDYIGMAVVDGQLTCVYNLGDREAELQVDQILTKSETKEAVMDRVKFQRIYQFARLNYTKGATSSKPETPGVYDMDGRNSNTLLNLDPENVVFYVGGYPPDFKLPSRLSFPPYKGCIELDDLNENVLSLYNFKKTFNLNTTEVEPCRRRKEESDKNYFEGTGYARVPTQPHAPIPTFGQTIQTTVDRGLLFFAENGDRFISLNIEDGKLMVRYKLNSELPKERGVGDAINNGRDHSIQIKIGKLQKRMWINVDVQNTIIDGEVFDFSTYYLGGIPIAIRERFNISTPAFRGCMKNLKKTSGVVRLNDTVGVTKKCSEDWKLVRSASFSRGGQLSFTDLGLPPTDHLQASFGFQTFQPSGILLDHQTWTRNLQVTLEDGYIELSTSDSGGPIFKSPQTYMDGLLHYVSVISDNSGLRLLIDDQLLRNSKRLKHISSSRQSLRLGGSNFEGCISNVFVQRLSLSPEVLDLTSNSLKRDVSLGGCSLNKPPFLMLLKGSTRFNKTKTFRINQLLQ
In words: Western blot of purified LN5, reducing SDS-PAGE.

Test [2] has as its target T2, recombinant LG4/5 fragment of chain alpha3 of human laminin-5 (human, UniProt Q16787 2981-3333, limits assumed).
T2 construct: Recombinantly expressed and purified on heparin as in Okamoto et al. 2003; also called alpha3LG4/5 fragment; LG4/5 domain
T2 sequence: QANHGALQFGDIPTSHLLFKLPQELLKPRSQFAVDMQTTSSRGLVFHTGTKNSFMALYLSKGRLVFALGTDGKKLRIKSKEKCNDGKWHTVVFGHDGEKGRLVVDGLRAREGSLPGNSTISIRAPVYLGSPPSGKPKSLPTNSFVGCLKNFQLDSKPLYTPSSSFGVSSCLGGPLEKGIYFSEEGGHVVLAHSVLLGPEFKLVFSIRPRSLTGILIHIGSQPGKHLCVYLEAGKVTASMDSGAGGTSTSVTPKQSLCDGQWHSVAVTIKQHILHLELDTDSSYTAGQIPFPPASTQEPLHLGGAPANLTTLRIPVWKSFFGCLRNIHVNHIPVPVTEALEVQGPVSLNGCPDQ
The test can be described thus: Western blot of the purified recombinant LG4/5 fragment. On the technique in general: Immunoblotting shows a protein as a band on a membrane.

B1: 1H12 monoclonal antibody produced by the hybridoma cell line named 1H12 (C.N.C.M. I-3890) (antibody, V domains shown)
VH: VKLQQSGPELVKPGASVKISCKTSGYTFTEYTIHWVKQSHGKTLEWIGGINPKNGDTSYNQKFKGKATLTVDKSSNTAYMEFRSLTSEDSAVYYCASPDLPPMDYWGQGTTVTVSS
VL: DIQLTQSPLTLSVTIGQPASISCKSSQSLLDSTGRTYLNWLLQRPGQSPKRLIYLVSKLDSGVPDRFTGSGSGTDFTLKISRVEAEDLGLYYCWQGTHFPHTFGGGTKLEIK
notes: Mouse IgG1 kappa from hybridoma (supernatant or ascites); Ends of the V domains come from PCR primers; also called 1H12 mAb; mAb 1H12
As for B1, the binding result in test [1] is on record as “no binding”; in test [2], “binds”.

(Values after US20120034229A1 (UNIVERSITE CLAUDE BERNARD LYON 1, published 2012).)
